Key:
Assay in all cases: high-throughput RNA pulldown from lysate on Ni-NTA beads; HRP: 50 mM Tris pH 8, 150 mM NaCl, 1 mM beta-mercaptoethanol, 50 ug/ml BSA, 3 ug/ml yeast RNA, 0.5% heparin; ITC and FP: Tris pH 8, 200 mM KCl, 5% glycerol; MST: 50 mM Tris pH 8, 200 mM NaCl, 1 mM DTT, BSA, heparin, 0.05% Tween 20
Settings in all cases: tags: N-terminal His-eGFP
[1] = molecular target: T1, GFP-9S library array, motif 4 ND N98C;D124N (synthetic construct, N98C;D124N)
T1 chain: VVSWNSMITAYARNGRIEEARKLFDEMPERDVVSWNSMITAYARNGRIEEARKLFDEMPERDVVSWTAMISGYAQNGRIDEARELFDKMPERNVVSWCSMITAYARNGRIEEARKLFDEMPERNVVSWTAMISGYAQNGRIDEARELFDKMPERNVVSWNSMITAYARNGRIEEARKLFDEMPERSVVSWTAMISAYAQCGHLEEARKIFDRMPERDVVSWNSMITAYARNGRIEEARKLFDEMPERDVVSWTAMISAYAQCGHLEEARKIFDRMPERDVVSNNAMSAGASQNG

[2] = molecular target: T2, GFP-9S library array, motif 4 ND N98L;D124S (synthetic construct, N98L;D124S)
T2 chain: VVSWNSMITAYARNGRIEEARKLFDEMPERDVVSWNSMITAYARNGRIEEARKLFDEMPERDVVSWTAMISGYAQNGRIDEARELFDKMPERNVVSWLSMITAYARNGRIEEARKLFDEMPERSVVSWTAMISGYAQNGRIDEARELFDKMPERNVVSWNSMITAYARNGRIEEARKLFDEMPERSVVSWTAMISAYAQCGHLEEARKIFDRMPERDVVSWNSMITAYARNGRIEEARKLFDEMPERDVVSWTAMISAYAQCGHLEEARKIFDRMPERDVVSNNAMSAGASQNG

[3] = molecular target: T3, GFP-9S library array, motif 4 ND N98V;D124K (synthetic construct, N98V;D124K)
T3 chain: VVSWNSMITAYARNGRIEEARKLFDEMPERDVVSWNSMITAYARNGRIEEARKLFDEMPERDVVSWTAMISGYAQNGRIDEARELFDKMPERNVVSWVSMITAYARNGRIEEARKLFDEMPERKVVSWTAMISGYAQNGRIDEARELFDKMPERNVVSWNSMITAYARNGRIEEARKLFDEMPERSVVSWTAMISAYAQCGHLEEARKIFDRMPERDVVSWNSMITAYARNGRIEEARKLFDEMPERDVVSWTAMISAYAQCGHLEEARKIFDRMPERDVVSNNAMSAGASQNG

[4] = molecular target: T4, GFP-9S library array, motif 4 ND (synthetic construct)
T4 chain: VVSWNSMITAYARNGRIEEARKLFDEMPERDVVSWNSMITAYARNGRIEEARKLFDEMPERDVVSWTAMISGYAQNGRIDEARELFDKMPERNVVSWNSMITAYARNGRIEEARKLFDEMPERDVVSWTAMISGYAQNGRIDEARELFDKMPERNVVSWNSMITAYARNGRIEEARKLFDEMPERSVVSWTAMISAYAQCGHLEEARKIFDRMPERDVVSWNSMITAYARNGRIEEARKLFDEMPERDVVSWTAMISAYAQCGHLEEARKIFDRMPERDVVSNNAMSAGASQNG

[5] = molecular target: T5, GFP-9S library array, motif 4 ND N98S;D124S (synthetic construct, N98S;D124S)
T5 chain: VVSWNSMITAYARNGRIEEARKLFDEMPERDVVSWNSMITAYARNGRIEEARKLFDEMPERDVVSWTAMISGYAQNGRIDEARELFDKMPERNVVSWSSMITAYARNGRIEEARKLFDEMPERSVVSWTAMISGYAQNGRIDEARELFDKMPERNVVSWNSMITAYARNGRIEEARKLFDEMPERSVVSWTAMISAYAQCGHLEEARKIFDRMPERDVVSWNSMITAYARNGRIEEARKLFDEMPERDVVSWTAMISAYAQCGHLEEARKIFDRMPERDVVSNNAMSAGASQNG

Binder | Kd ([1]; label: 5' Cy5) | Kd ([2]; label: 5' Cy5) | Kd ([3]; label: 5' Cy5) | Kd ([4]; label: 5' Cy5) | Kd ([5]; label: 5' Cy5) | Kd ([1]; label: 5' IRDye 800CW) | Kd ([2]; label: 5' IRDye 800CW) | Kd ([3]; label: 5' IRDye 800CW) | Kd ([4]; label: 5' IRDye 800CW) | Kd ([5]; label: 5' IRDye 800CW)
AUUAGACGUGA (ssRNA) [Cy5-rpoA-G] | 346 nM | 111 nM | 91.4 nM | 276 nM | 251 nM | – | – | – | – | –
AUUACACGUGA (ssRNA) [Cy5-rpoA] | 213 nM | 139 nM | 97.1 nM | 19 nM | 112 nM | – | – | – | – | –
AUUAUACGUGA (ssRNA) [IR-rpoA-U] | – | – | – | – | – | 152 nM | 37.2 nM | 128 nM | 6.27 nM | 69.8 nM
AUUAAACGUGA (ssRNA) [IR-rpoA-A] | – | – | – | – | – | 45 nM | 120 nM | 146 nM | 86.8 nM | 65.3 nM
